From publication doi:10.1101/2022.06.24.497451

Target: SMC3CC/RAD21N complex (human)

| loss of ATPase activity compared to the WT complex when SMC3CC/RAD21N was added [%] | Substance |
| --- | --- |
| 10 | SMC1ACC-R57A/RAD21C complex |
| 10 | SMC1ACC-Δ58-62/RAD21C complex |
